B1: KLHDC10 (parent)
chain: CPIIRIPNRFLRGHRPPPARSGHR

Variants of: B1
Experiment: protein stability index of a GFP-peptide fusion (GPS, HEK-293T) (PSI 1-6); higher = more stable
Conditions: c terminus: a fixed tail appended
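Further: lentivirally expressed fusions sorted by FACS into six bins by GFP to DsRed ratio, PSI derived from sequencing read proportions per bin multiplied by bin number.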

First: CPIIRIPNRFLRGHRTPPARSGHR [P16T]
Second: CPIIRIPNRFLRGHRVPPARSGHR [P16V]
The protein stability index of the first is higher: 2.38 for the first, 1.23 for the second.

First: CPIIRIPNRFLRGHRYPPARSGHR [P16Y]
Second: CPIIRIPNRFLRGHRPAPARSGHR [P17A]
The protein stability index of the first is lower: 1.31 for the first, 2.28 for the second.

Compared with CPIIRIPNRFLRGHRPCPARSGHR [P17C], CPIIRIPNRFLRGHRPDPARSGHR [P17D] is higher in protein stability index: 1.21 for the first, 1.63 for the second.

Compared with CPIIRIPNRFLRGHRPEPARSGHR [P17E], CPIIRIPNRFLRGHRPFPARSGHR [P17F] is lower in protein stability index: 1.93 for the first, 1.81 for the second.

First: CPIIRIPNRFLRGHRPGPARSGHR [P17G]
Second: CPIIRIPNRFLRGHRPHPARSGHR [P17H]
The protein stability index of the first is higher: 2.09 for the first, 1.76 for the second.

First: CPIIRIPNRFLRGHRPIPARSGHR [P17I]
Second: CPIIRIPNRFLRGHRPKPARSGHR [P17K]
The protein stability index of the first is lower: 1.93 for the first, 2.98 for the second.

Compared with CPIIRIPNRFLRGHRPLPARSGHR [P17L], CPIIRIPNRFLRGHRPMPARSGHR [P17M] is lower in protein stability index: 2.28 for the first, 1.8 for the second.

Going from CPIIRIPNRFLRGHRPNPARSGHR [P17N] to CPIIRIPNRFLRGHRPQPARSGHR [P17Q], the protein stability index falls from 2.2 to 1.57.

Going from CPIIRIPNRFLRGHRPRPARSGHR [P17R] to CPIIRIPNRFLRGHRPSPARSGHR [P17S], the protein stability index falls from 2.34 to 2.27.

Going from CPIIRIPNRFLRGHRPTPARSGHR [P17T] to CPIIRIPNRFLRGHRPVPARSGHR [P17V], the protein stability index rises from 1.64 to 3.32.

First: CPIIRIPNRFLRGHRPWPARSGHR [P17W]
Second: CPIIRIPNRFLRGHRPYPARSGHR [P17Y]
The protein stability index of the first is lower: 1.97 for the first, 2.55 for the second.

Compared with CPIIRIPNRFLRGHRPPAARSGHR [P18A], CPIIRIPNRFLRGHRPPCARSGHR [P18C] is higher in protein stability index: 1.51 for the first, 1.82 for the second.

Compared with CPIIRIPNRFLRGHRPPDARSGHR [P18D], CPIIRIPNRFLRGHRPPEARSGHR [P18E] is higher in protein stability index: 1.49 for the first, 1.78 for the second.

First: CPIIRIPNRFLRGHRPPFARSGHR [P18F]
Second: CPIIRIPNRFLRGHRPPGARSGHR [P18G]
The protein stability index of the first is lower: 1.62 for the first, 2.95 for the second.

First: CPIIRIPNRFLRGHRPPHARSGHR [P18H]
Second: CPIIRIPNRFLRGHRPPIARSGHR [P18I]
The protein stability index of the first is higher: 2.37 for the first, 2.17 for the second.

Compared with CPIIRIPNRFLRGHRPPKARSGHR [P18K], CPIIRIPNRFLRGHRPPLARSGHR [P18L] is lower in protein stability index: 2.5 for the first, 1.47 for the second.

Compared with CPIIRIPNRFLRGHRPPMARSGHR [P18M], CPIIRIPNRFLRGHRPPNARSGHR [P18N] is higher in protein stability index: 1.74 for the first, 2.43 for the second.

Going from CPIIRIPNRFLRGHRPPQARSGHR [P18Q] to CPIIRIPNRFLRGHRPPRARSGHR [P18R], the protein stability index falls from 1.78 to 1.63.

Going from CPIIRIPNRFLRGHRPPSARSGHR [P18S] to CPIIRIPNRFLRGHRPPTARSGHR [P18T], the protein stability index falls from 2.37 to 1.92.

Going from CPIIRIPNRFLRGHRPPVARSGHR [P18V] to CPIIRIPNRFLRGHRPPWARSGHR [P18W], the protein stability index falls from 2.27 to 1.85.

First: CPIIRIPNRFLRGHRPPYARSGHR [P18Y]
Second: CPIIRIPNRFLRGHRPPPDRSGHR [A19D]
The protein stability index of the first is lower: 1.91 for the first, 2.95 for the second.

Compared with CPIIRIPNRFLRGHRPPPFRSGHR [A19F], CPIIRIPNRFLRGHRPPPGRSGHR [A19G] is higher in protein stability index: 1.69 for the first, 1.82 for the second.

Compared with CPIIRIPNRFLRGHRPPPHRSGHR [A19H], CPIIRIPNRFLRGHRPPPIRSGHR [A19I] is lower in protein stability index: 3.04 for the first, 1.4 for the second.

First: CPIIRIPNRFLRGHRPPPKRSGHR [A19K]
Second: CPIIRIPNRFLRGHRPPPLRSGHR [A19L]
The protein stability index of the first is higher: 1.61 for the first, 1.46 for the second.

Compared with CPIIRIPNRFLRGHRPPPMRSGHR [A19M], CPIIRIPNRFLRGHRPPPNRSGHR [A19N] is higher in protein stability index: 2.12 for the first, 2.23 for the second.

Going from CPIIRIPNRFLRGHRPPPQRSGHR [A19Q] to CPIIRIPNRFLRGHRPPPRRSGHR [A19R], the protein stability index rises from 1.48 to 2.02.

Going from CPIIRIPNRFLRGHRPPPSRSGHR [A19S] to CPIIRIPNRFLRGHRPPPVRSGHR [A19V], the protein stability index falls from 1.8 to 1.48.

First: CPIIRIPNRFLRGHRPPPWRSGHR [A19W]
Second: CPIIRIPNRFLRGHRPPPAASGHR [R20A]
The protein stability index of the first is lower: 1.69 for the first, 2.48 for the second.

First: CPIIRIPNRFLRGHRPPPACSGHR [R20C]
Second: CPIIRIPNRFLRGHRPPPADSGHR [R20D]
The protein stability index of the first is lower: 1.48 for the first, 2.73 for the second.

Going from CPIIRIPNRFLRGHRPPPAFSGHR [R20F] to CPIIRIPNRFLRGHRPPPAGSGHR [R20G], the protein stability index falls from 2.81 to 1.95.

First: CPIIRIPNRFLRGHRPPPAISGHR [R20I]
Second: CPIIRIPNRFLRGHRPPPALSGHR [R20L]
The protein stability index of the first is lower: 1.38 for the first, 2.45 for the second.

Going from CPIIRIPNRFLRGHRPPPAMSGHR [R20M] to CPIIRIPNRFLRGHRPPPAPSGHR [R20P], the protein stability index rises from 2.13 to 2.16.

Going from CPIIRIPNRFLRGHRPPPAQSGHR [R20Q] to CPIIRIPNRFLRGHRPPPATSGHR [R20T], the protein stability index rises from 1.93 to 2.51.

Going from CPIIRIPNRFLRGHRPPPAVSGHR [R20V] to CPIIRIPNRFLRGHRPPPAWSGHR [R20W], the protein stability index falls from 2.62 to 1.75.

Compared with CPIIRIPNRFLRGHRPPPARAGHR [S21A], CPIIRIPNRFLRGHRPPPARDGHR [S21D] is lower in protein stability index: 1.85 for the first, 1.75 for the second.

Compared with CPIIRIPNRFLRGHRPPPARFGHR [S21F], CPIIRIPNRFLRGHRPPPARGGHR [S21G] is lower in protein stability index: 2.91 for the first, 2.63 for the second.

First: CPIIRIPNRFLRGHRPPPARHGHR [S21H]
Second: CPIIRIPNRFLRGHRPPPARIGHR [S21I]
The protein stability index of the first is higher: 1.75 for the first, 1.36 for the second.

Going from CPIIRIPNRFLRGHRPPPARKGHR [S21K] to CPIIRIPNRFLRGHRPPPARLGHR [S21L], the protein stability index rises from 1.65 to 1.97.

First: CPIIRIPNRFLRGHRPPPARMGHR [S21M]
Second: CPIIRIPNRFLRGHRPPPARNGHR [S21N]
The protein stability index of the first is lower: 1.66 for the first, 2.25 for the second.

First: CPIIRIPNRFLRGHRPPPARPGHR [S21P]
Second: CPIIRIPNRFLRGHRPPPARQGHR [S21Q]
The protein stability index of the first is higher: 1.94 for the first, 1.42 for the second.

Compared with CPIIRIPNRFLRGHRPPPARRGHR [S21R], CPIIRIPNRFLRGHRPPPARTGHR [S21T] is lower in protein stability index: 1.97 for the first, 1.83 for the second.

First: CPIIRIPNRFLRGHRPPPARVGHR [S21V]
Second: CPIIRIPNRFLRGHRPPPARWGHR [S21W]
The protein stability index of the first is lower: 1.62 for the first, 1.83 for the second.

Compared with CPIIRIPNRFLRGHRPPPARSAHR [G22A], CPIIRIPNRFLRGHRPPPARSCHR [G22C] is higher in protein stability index: 1.57 for the first, 1.62 for the second.

Going from CPIIRIPNRFLRGHRPPPARSDHR [G22D] to CPIIRIPNRFLRGHRPPPARSEHR [G22E], the protein stability index falls from 2.62 to 1.78.

Going from CPIIRIPNRFLRGHRPPPARSFHR [G22F] to CPIIRIPNRFLRGHRPPPARSHHR [G22H], the protein stability index falls from 2.01 to 1.84.

Compared with CPIIRIPNRFLRGHRPPPARSIHR [G22I], CPIIRIPNRFLRGHRPPPARSKHR [G22K] is lower in protein stability index: 1.82 for the first, 1.71 for the second.

Going from CPIIRIPNRFLRGHRPPPARSLHR [G22L] to CPIIRIPNRFLRGHRPPPARSMHR [G22M], the protein stability index falls from 2.02 to 1.91.

Reference: the supplement of paper PMC10567573
